Measured values from US20150258192A1, “COMPOSITIONS AND METHODS FOR PREVENTING OR TREATING CHRONIC LUNG ALLOGRAFT DYSFUNCTION (CLAD) AND IDIOPATHIC PULMONARY FIBROSIS (IPF)” (priority 2014, published 2015).
No end group written: not given here.

Experiments:
Aurora-A(h) = biological target: T1, Aurora-A(h) (Homo sapiens, UniProt O14965); test: Kinase Profiling Assay; assay type: biochemical; settings: peptide 100 μM
T1 sequence (O14965 1-403): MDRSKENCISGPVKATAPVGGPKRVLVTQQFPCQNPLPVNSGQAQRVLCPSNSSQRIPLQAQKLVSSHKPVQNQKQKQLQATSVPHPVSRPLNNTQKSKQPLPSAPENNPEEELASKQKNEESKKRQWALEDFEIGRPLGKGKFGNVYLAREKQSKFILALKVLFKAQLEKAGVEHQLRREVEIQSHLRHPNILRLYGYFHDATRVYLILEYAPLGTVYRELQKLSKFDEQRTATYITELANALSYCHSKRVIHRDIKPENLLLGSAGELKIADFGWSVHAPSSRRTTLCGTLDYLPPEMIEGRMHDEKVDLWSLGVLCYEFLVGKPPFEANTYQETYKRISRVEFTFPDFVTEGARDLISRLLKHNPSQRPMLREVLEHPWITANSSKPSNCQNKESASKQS
How it was run: (§1)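 In this 266-kinase specificity panel, every measurement was duplicated. Transfer of labeled phosphate from ATP to a cationic substrate was quantified after the substrate adhered to an anionic filter membrane and was scintillation-counted, then related to a full-activity control.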

EGFR(T790M)(h) = EGFR(T790M)(h) (Homo sapiens, UniProt P00533, T790M); test: Kinase Profiling Assay; assay type: biochemical; settings: peptide 100 μM
How it was run: as §1

HIPK3(h) = biological target: T2, HIPK3(h) (Homo sapiens, UniProt Q9H422); test: Kinase Profiling Assay; assay type: biochemical; settings: peptide 100 μM
T2 construct: purchased Millipore
How it was run: as §1

PAK3(h) = PAK3(h) (Homo sapiens, UniProt O75914); test: Kinase Profiling Assay; assay type: biochemical; settings: peptide 100 μM
How it was run: as §1

Abl(H396P)(h) = Abl(H396P)(h) (Homo sapiens, UniProt P00519, H396P); test: Kinase Profiling Assay; assay type: biochemical; settings: peptide 100 μM
How it was run: as §1

Abl(M351T)(h) = Abl(M351T)(h) (Homo sapiens, UniProt P00519, M351T); test: Kinase Profiling Assay; assay type: biochemical; settings: peptide 100 μM
How it was run: as §1

CK1γ3(h) = CK1γ3(h) (Homo sapiens, UniProt Q9Y6M4); test: Kinase Profiling Assay; assay type: biochemical; settings: peptide 100 μM
How it was run: as §1

PAR-1Bα(h) = PAR-1Bα(h) (Homo sapiens, UniProt Q7KZI7); test: Kinase Profiling Assay; assay type: biochemical; settings: peptide 100 μM
How it was run: as §1

PDGFRα(D842V)(h) = PDGFRα(D842V)(h) (Homo sapiens, UniProt P16234, D842V); test: Kinase Profiling Assay; assay type: biochemical; settings: peptide 100 μM
How it was run: as §1

IGF-1R(h) = biological target: T3, IGF-1R(h) (Homo sapiens, UniProt P08069); test: Kinase Profiling Assay; assay type: biochemical; settings: peptide 100 μM
T3 construct: purchased Millipore
How it was run: as §1

GRK5(h) = biological target: T4, GRK5(h) (Homo sapiens, UniProt P34947); test: Kinase Profiling Assay; assay type: biochemical; settings: peptide 100 μM
T4 construct: purchased Millipore
How it was run: as §1

CK2α2(h) = CK2α2(h) (Homo sapiens, UniProt P19784); test: Kinase Profiling Assay; assay type: biochemical; settings: peptide 100 μM
How it was run: as §1

Tie2(R849W)(h) = Tie2(R849W)(h) (Homo sapiens, UniProt Q02763, R849W); test: Kinase Profiling Assay; assay type: biochemical; settings: peptide 100 μM
How it was run: as §1

[1] = tested on: normal human fetal lung fibroblasts (IMR-90); test: TGF-β-induced myofibroblast activation (α-SMA immunoblot); assay type: cell-based; settings: pre-treated 1 h, TGF-β1 (2 ng/ml) 48 h
Excerpt: Cell lysates were immunoblotted against antibodies for α-SMA (a marker for myofibroblast activation) and GAPDH (loading control).

[2] = tested on: human fetal lung fibroblasts (IMR-90); test: TGF-β-mediated fibronectin expression; assay type: cell-based; settings: pre-treated 1 h, TGF-β1 (2 ng/ml) 72 h, conditioned media
Description: Fibronection was measured as secreted fragments in the conditioned media. Equal amounts (14 μg) of total proteins from the conditioned media were loaded in each lane.

[3] = tested on: bleomycin-induced lung fibrosis in C57BL/6 mice; test: Bleomycin mouse model of pulmonary fibrosis (IPF prevention model); assay type: in vivo; settings: for collagen levels in the lung (Masson's blue trichrome), dose-response: 25, 50 or 75 μg/kg daily IP, day 7-21; for collagen accumulation in the lungs (Masson's Trichrome staining) / development of fibrotic loci formation (H&E staining): daily day 7-21 post bleomycin; for total collagen deposition (from hydroxyproline) vs bleomycin control: post-inflammatory/pre-fibrotic stage
Description: A mouse model of pulmonary fibrosis was generated by administering 0.025 U of bleomycin/PBS intratracheally to C57BL/6 mice. […] At 21 day post bleomycin delivery (for prevention model) or 28 post bleomycin delivery (for treatment model), groups of mice were sacrificed with a sodium pentobarbital injection (120 mg/kg) and the chest cavity was opened. The right mainstem bronchus was ligated and the right lung was removed. The trachea was cannulated and the left lung was perfused with 4% formaldehyde at 21 cm H2O pressure. The tissue blocks then were embedded in paraffin, and […] sections were prepared for staining. Sections from each animal were stained with hematoxylin and eosin (H&E) to visualize cells or with Masson's Trichrome staining to highlight collagen deposition. […] Stained sections were mounted onto a labeled glass slide with organic mounting medium.
Briefly, fibrotic loci in the lungs of the mice were induced by delivering intratracheally about 0.025 U of bleomycin (dissolved in PBS) to C57BL/6 mice. […] Briefly, mice were sacrificed with a sodium pentobarbital injection (120 mg/kg) and the chest cavity was opened. The right mainstem bronchus was ligated and the right lung was removed. The trachea was cannulated and the left lung was perfused with 4% formaldehyde at 21 cm H2O pressure. The tissue blocks then were embedded in paraffin, and […] sections were prepared, and stained with hematoxylin and eosin (H&E; for pathological examination) or Masson's Trichrome (for collagen staining)
Next, total collagen levels in the lungs of the bleomycin-injured mice (FIG. 12) were analyzed quantitatively by computing a constant conversion factor (7.5) for collagen from hydroxyproline concentrations (Neuman R. and Logan M, J Biol Chem., 186(2):549-56, 1950, incorporated by reference).
Next, the effect of increasing doses of MK2 peptide inhibitors on collagen deposition was examined in vivo using the bleomycin mouse model of idiopathic pulmonary fibrosis (prevention model). Briefly, C57-BL/6 mice were subjected to bleomycin injury at day 0.

Sequence of Tie2(R849W)(h) (Q02763 23-1124 R849W): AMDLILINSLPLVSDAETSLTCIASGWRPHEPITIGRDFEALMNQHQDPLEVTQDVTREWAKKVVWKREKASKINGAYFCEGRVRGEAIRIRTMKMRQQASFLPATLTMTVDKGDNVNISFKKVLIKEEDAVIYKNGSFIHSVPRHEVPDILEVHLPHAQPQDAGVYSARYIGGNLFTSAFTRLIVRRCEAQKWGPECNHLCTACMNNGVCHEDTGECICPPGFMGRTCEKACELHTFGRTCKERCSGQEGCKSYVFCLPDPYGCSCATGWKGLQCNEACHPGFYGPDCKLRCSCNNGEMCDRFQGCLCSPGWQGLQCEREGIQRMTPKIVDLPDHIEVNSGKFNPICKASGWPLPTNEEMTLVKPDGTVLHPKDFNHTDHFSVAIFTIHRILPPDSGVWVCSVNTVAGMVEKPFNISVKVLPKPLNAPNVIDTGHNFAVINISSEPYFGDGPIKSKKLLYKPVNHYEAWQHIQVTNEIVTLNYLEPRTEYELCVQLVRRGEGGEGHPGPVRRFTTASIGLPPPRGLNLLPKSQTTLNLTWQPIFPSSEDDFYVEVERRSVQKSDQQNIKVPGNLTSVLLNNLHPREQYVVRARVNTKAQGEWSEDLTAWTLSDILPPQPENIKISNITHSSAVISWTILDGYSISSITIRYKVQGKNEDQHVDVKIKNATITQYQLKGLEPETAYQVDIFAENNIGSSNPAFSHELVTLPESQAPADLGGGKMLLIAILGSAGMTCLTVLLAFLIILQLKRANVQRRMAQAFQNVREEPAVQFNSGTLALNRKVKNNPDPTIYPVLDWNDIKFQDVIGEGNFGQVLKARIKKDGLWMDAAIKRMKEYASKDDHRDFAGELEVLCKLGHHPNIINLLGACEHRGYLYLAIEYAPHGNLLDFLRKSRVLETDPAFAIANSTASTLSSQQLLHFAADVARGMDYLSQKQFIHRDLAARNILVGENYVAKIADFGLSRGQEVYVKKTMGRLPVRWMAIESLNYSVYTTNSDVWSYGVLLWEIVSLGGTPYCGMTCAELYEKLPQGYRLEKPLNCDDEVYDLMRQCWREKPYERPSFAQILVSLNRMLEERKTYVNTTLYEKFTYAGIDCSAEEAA
Sequence of CK1γ3(h) (Q9Y6M4 whole entry): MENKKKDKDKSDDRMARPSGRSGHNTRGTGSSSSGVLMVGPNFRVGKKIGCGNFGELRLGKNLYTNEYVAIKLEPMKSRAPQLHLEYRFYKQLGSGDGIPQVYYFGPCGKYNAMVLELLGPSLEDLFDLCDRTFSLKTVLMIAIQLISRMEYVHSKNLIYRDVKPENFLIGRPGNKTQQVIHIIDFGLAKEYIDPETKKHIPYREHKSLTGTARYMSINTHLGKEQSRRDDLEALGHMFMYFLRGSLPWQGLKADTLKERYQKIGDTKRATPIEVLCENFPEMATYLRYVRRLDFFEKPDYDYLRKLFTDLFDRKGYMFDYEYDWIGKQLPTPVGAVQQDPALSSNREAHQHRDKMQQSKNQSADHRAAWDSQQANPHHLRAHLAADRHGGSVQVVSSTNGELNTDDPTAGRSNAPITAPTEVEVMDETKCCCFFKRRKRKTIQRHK
Sequence of PAK3(h) (O75914 whole entry): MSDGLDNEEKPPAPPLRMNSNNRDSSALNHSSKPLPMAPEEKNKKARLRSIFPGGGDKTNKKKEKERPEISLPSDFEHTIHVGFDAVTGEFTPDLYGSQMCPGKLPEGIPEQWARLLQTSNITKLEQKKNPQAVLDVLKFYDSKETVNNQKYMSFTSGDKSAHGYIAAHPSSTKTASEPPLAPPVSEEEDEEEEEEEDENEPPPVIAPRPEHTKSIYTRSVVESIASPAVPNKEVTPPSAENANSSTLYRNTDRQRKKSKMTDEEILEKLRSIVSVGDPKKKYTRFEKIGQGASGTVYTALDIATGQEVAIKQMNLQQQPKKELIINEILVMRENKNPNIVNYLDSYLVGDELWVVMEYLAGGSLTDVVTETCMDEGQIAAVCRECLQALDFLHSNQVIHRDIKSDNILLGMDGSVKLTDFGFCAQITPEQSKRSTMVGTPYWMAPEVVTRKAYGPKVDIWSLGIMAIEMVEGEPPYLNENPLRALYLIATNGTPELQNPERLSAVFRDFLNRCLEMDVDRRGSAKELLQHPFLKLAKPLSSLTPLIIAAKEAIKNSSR
T4 sequence (P34947 whole entry): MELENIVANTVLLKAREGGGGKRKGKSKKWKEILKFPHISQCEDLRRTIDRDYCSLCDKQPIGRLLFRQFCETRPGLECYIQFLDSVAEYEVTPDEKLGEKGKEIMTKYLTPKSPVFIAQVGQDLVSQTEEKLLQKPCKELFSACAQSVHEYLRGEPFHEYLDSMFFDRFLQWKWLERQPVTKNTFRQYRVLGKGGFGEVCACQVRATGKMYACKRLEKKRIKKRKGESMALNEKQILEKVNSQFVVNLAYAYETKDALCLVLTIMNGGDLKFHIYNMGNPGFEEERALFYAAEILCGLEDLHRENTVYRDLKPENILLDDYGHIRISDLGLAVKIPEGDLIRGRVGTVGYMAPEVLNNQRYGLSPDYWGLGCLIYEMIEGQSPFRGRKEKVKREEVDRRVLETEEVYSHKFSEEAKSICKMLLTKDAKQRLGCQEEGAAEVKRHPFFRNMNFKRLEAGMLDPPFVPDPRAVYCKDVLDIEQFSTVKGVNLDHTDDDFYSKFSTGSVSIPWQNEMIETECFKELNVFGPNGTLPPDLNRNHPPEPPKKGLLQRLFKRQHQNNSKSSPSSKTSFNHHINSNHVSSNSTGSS
Sequence of CK2α2(h) (P19784 whole entry): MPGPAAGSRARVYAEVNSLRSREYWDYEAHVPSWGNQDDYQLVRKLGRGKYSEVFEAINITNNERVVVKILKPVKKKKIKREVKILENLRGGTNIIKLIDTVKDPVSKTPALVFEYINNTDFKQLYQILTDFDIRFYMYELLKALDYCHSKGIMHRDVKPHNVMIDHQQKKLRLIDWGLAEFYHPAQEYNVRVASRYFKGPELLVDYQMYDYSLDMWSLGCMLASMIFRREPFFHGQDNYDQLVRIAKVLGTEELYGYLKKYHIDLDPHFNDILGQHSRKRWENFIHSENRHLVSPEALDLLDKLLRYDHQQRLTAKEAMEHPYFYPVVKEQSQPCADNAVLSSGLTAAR
Sequence of PDGFRα(D842V)(h) (P16234 24-1089 D842V): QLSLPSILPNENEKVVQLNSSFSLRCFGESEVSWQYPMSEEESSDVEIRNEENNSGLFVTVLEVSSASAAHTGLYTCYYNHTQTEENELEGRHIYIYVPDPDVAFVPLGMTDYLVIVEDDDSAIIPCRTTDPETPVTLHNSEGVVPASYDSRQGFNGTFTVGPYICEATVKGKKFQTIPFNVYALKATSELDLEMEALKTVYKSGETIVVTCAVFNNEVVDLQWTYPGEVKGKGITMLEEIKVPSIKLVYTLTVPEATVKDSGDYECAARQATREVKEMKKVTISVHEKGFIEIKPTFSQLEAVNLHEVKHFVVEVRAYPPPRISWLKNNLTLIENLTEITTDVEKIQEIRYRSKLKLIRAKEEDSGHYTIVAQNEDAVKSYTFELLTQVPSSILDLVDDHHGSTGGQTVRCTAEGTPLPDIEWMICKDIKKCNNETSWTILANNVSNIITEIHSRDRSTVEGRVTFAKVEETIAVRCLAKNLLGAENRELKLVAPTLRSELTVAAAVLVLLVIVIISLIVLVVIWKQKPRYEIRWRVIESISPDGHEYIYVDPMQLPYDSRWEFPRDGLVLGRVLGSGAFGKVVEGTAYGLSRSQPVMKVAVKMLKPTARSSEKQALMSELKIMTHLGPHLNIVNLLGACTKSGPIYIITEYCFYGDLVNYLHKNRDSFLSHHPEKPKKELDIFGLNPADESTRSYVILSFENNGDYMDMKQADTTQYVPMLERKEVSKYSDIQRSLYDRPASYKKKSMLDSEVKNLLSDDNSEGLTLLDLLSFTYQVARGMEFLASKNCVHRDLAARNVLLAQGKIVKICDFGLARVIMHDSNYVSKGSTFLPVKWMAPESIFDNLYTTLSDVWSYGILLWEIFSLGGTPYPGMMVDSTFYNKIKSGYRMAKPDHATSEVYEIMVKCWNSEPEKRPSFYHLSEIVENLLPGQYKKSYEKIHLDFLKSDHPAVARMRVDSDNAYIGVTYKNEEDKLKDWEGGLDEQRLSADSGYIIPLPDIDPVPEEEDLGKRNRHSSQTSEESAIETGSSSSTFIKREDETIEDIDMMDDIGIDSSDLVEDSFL
Sequence of PAR-1Bα(h) (Q7KZI7 1-725 isoform Q7KZI7-4): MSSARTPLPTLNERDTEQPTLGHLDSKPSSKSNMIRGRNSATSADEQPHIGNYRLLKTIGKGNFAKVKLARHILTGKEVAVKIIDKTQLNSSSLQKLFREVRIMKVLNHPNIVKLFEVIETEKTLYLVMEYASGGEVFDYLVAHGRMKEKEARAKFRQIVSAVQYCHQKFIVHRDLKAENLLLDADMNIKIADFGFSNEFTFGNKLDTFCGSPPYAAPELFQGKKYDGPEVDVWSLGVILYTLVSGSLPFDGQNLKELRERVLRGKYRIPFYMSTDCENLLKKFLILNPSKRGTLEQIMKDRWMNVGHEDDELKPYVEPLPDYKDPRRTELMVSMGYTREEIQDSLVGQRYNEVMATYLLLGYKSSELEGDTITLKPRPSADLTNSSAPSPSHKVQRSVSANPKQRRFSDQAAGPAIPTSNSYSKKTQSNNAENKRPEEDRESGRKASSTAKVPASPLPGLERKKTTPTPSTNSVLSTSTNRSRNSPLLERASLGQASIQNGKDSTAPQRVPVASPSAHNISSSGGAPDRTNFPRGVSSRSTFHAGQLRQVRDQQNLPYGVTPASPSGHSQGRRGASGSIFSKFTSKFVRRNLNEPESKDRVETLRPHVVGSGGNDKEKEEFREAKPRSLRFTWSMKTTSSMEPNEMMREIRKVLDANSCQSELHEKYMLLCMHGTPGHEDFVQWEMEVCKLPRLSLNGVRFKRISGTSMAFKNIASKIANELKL

Row | Sequence | % activity (Aurora-A(h)) | % activity (EGFR(T790M)(h)) | % activity (HIPK3(h)) | % activity (PAK3(h)) | % activity (Abl(H396P)(h)) | % activity (Abl(M351T)(h)) | % activity (CK1γ3(h)) | % activity (PAR-1Bα(h)) | % activity (PDGFRα(D842V)(h)) | % activity (IGF-1R(h)) | % activity (GRK5(h)) | % activity (CK2α2(h)) | % activity (Tie2(R849W)(h)) | protein level of α-smooth muscle actin (α-SMA) [1] | protein level of fibronectin [2] | collagen levels in the lung (Masson's blue trichrome), dose-response [3] | also measured
1 | FAKLAARLYRKALARQLGVAA [MMI-0300] | 92% | 100% | 93% | 140% | 101% | 90% | 125% |  |  |  |  |  |  |  |  |  | 
2 | HRRIKAWLKKIKALARQLGVAA (Mammal) [MMI-0500] | 110% | 70% | 85% |  | 51% | 61% |  | 97% | 170% |  |  |  |  |  |  |  | 
3 | KAFAKLAARLYRKALARQLGVAA [MMI-0400] |  |  |  |  |  |  |  |  | 118% | 90% | 131% | 96% | 108% |  |  |  | 
4 | YARAAARQARAKALARQLGVAA [MMI-0100] |  |  |  |  |  |  |  |  |  |  |  |  |  | decreases | decreases | a decrease in collagen levels | collagen accumulation in the lungs (Masson's Trichrome staining) ([3]; intraperitoneally): reduced collagen accumulation; development of fibrotic loci formation (H&E staining) ([3]; intraperitoneally): significantly reduced; total collagen deposition (from hydroxyproline) vs bleomycin control ([3]; nebulized): significantly decreased; total collagen deposition (from hydroxyproline) vs bleomycin control ([3]; systemic (IP)): significantly decreased; collagen accumulation in the lungs (Masson's Trichrome staining) ([3]; via nebulization): reduced collagen accumulation; development of fibrotic loci formation (H&E staining) ([3]; via nebulization): significantly reduced
5 | YARAAARQARAKALNRQLGVA (Mammal) [MMI-0200] |  |  |  | 50% |  |  | 96% | 110% |  | 49% | 135% | 88% | 89% | no changes | no changes | did not reduce, but rather increased | 
